B1: recombinant human ERp44 (natural protein, UniProt Q9BS26 30-406, looked up)
chain: EITSLDTENIDEILNNADVALVNFYADWCRFSQMLHPIFEEASDVIKEEFPNENQVVFARVDCDQHSDIAQRYRISKYPTLKLFRNGMMMKREYRGQRSVKALADYIRQQKSDPIQEIRDLAEITTLDRSKRNIIGYFEQKDSDNYRVFERVANILHDDCAFLSAFGDVSKPERYSGDNIIYKPPGHSAPDMVYLGAMTNFDVTYNWIQDKCVPLVREITFENGEELTEEGLPFLILFHMKEDTESLEIFQNEVARQLISEKGTINFLHADCDKFRHPLLHIQKTPADCPVIAIDSFRHMYVFGDFKDVLIPGKLKQFVFDLHSGKLHREFHHGPDPTDTAPGEQAQDVASSPPESSFQKLAPSEYRYTLLRDRDEL
notes: human ERp44, recombinant; a construct made in E. coli probably lacks the signal peptide; source: E. coli BL21 (DE3), purified (HisTrap, Superdex 200, Resource Q)
B2: recombinant human Prx4 (natural protein, UniProt Q13162 38-271, looked up)
chain: WETEERPRTREEECHFYAGGQVYPGEASRVSVADHSLHLSKAKISKPAPYWEGTAVIDGEFKELKLTDYRGKYLVFFFYPLDFTFVCPTEIIAFGDRLEEFRSINTEVVACSVDSQFTHLAWINTPRRQGGLGPIRIPLLSDLTHQISKDYGVYLEDSGHTLRGLFIIDDKGILRQITLNDLPVGRSVDETLRLVQAFQYTDKHGEVCPAGWKPGSETIIPDPAGKLKYFDKLN
notes: human Prx4, recombinant; a construct made in E. coli probably lacks the signal peptide; also called purified human Prx4; peroxiredoxin 4; source: E. coli BL21 (DE3), purified (HisTrap, Superdex 200, Resource Q)
B3: recombinant human Ero1α (WT) (natural protein, UniProt Q96HE7 24-468, looked up)
chain: EEQPPETAAQRCFCQVSGYLDDCTCDVETIDRFNNYRLFPRLQKLLESDYFRYYKVNLKRPCPFWNDISQCGRRDCAVKPCQSDEVPDGIKSASYKYSEEANNLIEECEQAERLGAVDESLSEETQKAVLQWTKHDDSSDNFCEADDIQSPEAEYVDLLLNPERYTGYKGPDAWKIWNVIYEENCFKPQTIKRPLNPLASGQGTSEENTFYSWLEGLCVEKRAFYRLISGLHASINVHLSARYLLQETWLEKKWGHNITEFQQRFDGILTEGEGPRRLKNLYFLYLIELRALSKVLPFFERPDFQLFTGNKIQDEENKMLLLEILHEIKSFPLHFDENSFFAGDKKEAHKLKEDFRLHFRNISRIMDCVGCFKCRLWGKLQTQGLGTALKILFSEKLIANMPESGPSYEFHLTRQEIVSLFNAFGRISTSVKELENFRNLLQNIH
notes: human Ero1α, wild type, recombinant; also called purified human Ero1α; source: recombinant, purified

Assays:
Conditions in all cases: both partners purified
[1] = molecular target: B3; test: SPR; ProteOn XPR36; Ero1α (WT) or Prx4 amine-coupled to a GLC chip, ERp44 as analyte (0.444–36 μM); 25 °C; 20 mM HEPES-NaOH pH 6.4, 150 mM NaCl, 0.001% Tween, 2 mM EDTA; two-state model
[2] = molecular target: B3; test: SPR; ProteOn XPR36; Ero1α (WT) or Prx4 amine-coupled to a GLC chip, PDI or ERp44 as analyte (0.444–36 μM); 25 °C; 20 mM HEPES-NaOH pH 7.4, 150 mM NaCl, 0.001% Tween, 2 mM EDTA; two-state model
recombinant human ERp44 [3] = molecular target: B1; test: SPR; ProteOn XPR36; Ero1α (WT) or Prx4 amine-coupled to a GLC chip, ERp44 as analyte (0.444–36 μM); 25 °C; 20 mM HEPES-NaOH pH 6.4, 150 mM NaCl, 0.001% Tween, 2 mM EDTA; two-state model
recombinant human ERp44 [4] = molecular target: B1; test: SPR; ProteOn XPR36; Ero1α (WT) or Prx4 amine-coupled to a GLC chip, PDI or ERp44 as analyte (0.444–36 μM); 25 °C; 20 mM HEPES-NaOH pH 7.4, 150 mM NaCl, 0.001% Tween, 2 mM EDTA; two-state model
recombinant human PDI = molecular target: T1, recombinant human PDI (human, UniProt P07237 18-508); test: as above
T1 construct: human PDI, recombinant; also called protein disulfide isomerase; source: recombinant, purified
T1 sequence (P07237 18-508): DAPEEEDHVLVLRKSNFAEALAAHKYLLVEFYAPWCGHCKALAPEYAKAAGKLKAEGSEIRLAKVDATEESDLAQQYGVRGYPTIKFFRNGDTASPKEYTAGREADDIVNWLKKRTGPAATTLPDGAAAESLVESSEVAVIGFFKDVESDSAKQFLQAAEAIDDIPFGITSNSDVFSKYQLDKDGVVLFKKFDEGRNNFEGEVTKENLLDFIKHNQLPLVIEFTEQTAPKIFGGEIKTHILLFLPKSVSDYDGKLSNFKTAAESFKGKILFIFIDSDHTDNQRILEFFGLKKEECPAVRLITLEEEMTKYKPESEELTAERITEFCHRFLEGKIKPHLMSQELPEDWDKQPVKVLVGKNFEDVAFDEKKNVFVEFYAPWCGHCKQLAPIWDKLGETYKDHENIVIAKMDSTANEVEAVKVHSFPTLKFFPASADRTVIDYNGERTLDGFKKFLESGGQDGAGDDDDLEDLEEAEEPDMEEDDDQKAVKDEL

Binder: B1
Kd [1]: 5.15 µM
Kd [2]: 10.4 µM

Binder: B2
Kd (recombinant human ERp44 [3]): 6.92 µM
Kd (recombinant human ERp44 [4]): 17.9 µM

Binder: B3
Kd (recombinant human PDI): 1.94 µM

Source: PMC3795256, “Dynamic Regulation of Ero1α and Peroxiredoxin 4 Localization in the Secretory Pathway*^([image sbox.jpg])” (The Journal of Biological Chemistry, 2013)
